Biological target: Adenovirus 5 receptor (on HeLa cells)
Assay: cell-based or functional assay

For “Adenovirus 5 fiber protein (from UniProt P11818 1-581)”, the transduction of HeLa cells with Av1LacZ4 in the presence of competitor (beta-galactosidase positive cells, percent of control) was 0.1 to 1 mug/ml.

From patent publication US20070010016A1
